The text below walks through data of publication PMC4726124, “Peptides in headlock – a novel high-affinity and versatile peptide-binding nanobody for proteomics and microscopy” (Scientific Reports, 2016).

The experiment has as its target T1, GFP with a C-terminal BC2 tag (BC2 tag (beta-catenin 16-27) on GFP, chimera).
T1 construct: GFP ('modified GFP that contains BC2T as a C-terminal peptide tag'; its control is called wtGFP); variant and limits are in the Supplementary methods; BC2 tag (BC2T), residues 16-27 of beta-catenin, at the C-terminus; also called GFP_(BC2T); source: E. coli, soluble protein fraction of the lysate (pull-downs); protein expression and purification are told in the Supplementary methods
T1 chain: PDRKAAVSHWQQ
The experiment can be described thus: SPR; measurements 'using the GFP_(BC2T) construct'; who was immobilised and the conditions are not told in the text shown (Supplementary methods, Supplementary Fig. 3). To be noted: both partners purified.

B1: BC2 nanobody (VHH)
VHH: QVQLVESGGGLVQPGGSLTLSCTASGFTLDHYDIGWFRQAPGKEREGVSCINNSDDDTYYADSVKGRFTIFMNNAKDTVYLQMNSLKPEDTAIYYCAEARGCKRGRYEYDFWGQGTQVTVSS
notes: In the pull-downs it is covalently coupled to Sepharose beads (BC2 nanotrap); also called BC2-Nb; wt; source: purified; expression and purification are told in the Supplementary methods
As to B1, binding was put at a Kd of 1.4 ± 0.06 nM, the koff was found to be 0.00064 s⁻¹ and the kon amounted to 460000 M⁻¹ s⁻¹.
